Test [1] concerns the target T1, 人4-1BB (h4-1BB) antigen protein, coated on ELISA plates (human, UniProt Q07011 24-186).
T1 construct: Soluble antigen for plate coating; also called 人抗原4-1BB; 抗原人H4-1BB蛋白
Put plainly: ELISA, antigen coated at 1 ug/ml, antibody 1000 to 0.24 ng/ml. In general terms: ELISA stands for enzyme-linked immunosorbent assay.

The target of test [2] is T2, 人4-1BB on CHO-K1 cells (CHO-h4-1BB) (human, UniProt Q07011 24-255).
T2 construct: whole, on cells; also called 高表达人4-1BB的CHO-K1细胞株
T2 sequence (Q07011 24-255): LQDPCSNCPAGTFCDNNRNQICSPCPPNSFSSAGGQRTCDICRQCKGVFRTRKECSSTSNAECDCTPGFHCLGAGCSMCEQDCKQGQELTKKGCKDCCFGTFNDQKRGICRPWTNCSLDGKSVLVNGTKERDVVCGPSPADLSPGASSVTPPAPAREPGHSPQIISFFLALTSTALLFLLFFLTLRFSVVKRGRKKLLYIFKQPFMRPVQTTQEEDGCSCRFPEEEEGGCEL
In words: FACS on CHO-h4-1BB cells, antibody 20 to 0.027 ug/ml.

T1 sequence (Q07011 24-186 limits assumed): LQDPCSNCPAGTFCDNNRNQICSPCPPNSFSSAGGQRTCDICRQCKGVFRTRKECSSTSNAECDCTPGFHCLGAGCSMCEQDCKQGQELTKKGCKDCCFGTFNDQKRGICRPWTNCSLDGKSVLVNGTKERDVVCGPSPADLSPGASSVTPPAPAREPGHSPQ

B1: 单克隆抗体HKB6 (抗人4-1BB抗体) (antibody, mouse IgG1, kappa, V domains shown)
VH: QVQLKESGPGLVAPSQSLSITCTVSGFSLTTYDISWIRQPPGKGLEWLGVIWTGGGTNYNSTFMSRLSINKDNSKSQVFLKMNSLQTDDTAIYYCVRVDYWGQGTSVTVSS
VL: DVVMTQTPLSLPVSLGDQASISCRSSQSLVHSNGNTYLHWFLQKPGQSPKLLIYKVSNRFPGVPDRFSGSGSGTDFTLKISRVEAEDLGVYFCSQNTHVPWTFGGGTKLEIKR
notes: Whole antibody from a mouse hybridoma, purified on Protein G; also called HKB6单克隆抗体
B1: the binding result in test [1] and in test [2] was “binds” each time.

Source of the values: patent CN111320691A (CHENG LIANSHENG; LIU JING, dated 2020).
